According to patent US20200206358A1, “LONG-CIRCULATING THERANOSTIC AGENTS FOR DIAGNOSING AND IMAGING METASTATIC TUMORS” (The Board of Trustees of the Leland Stanford Junior …, priority 2018, published 2020):
Non-standard residues stand in square brackets, D forms with d. Residues, ends and D or L forms follow the SMILES beside them. ξ: configuration not given here. *: point of attachment. X1 = Cc1cc(-c2ccc(N*)c(C)c2)ccc1N=Nc1ccc2c(S(=O)(=O)O)cc(S(=O)(=O)O)c(N)c2c1O; DOTA = O=C(O)CN1CCN(CC(=O)O)CCN(CC(=O)*)CCN(CC(=O)O)CC1; ξE = NC(CCC(=O)O)C(=O)O

Legend:
[1] = microPET/CT imaging, time activity curves in 143B tumor bearing nude mice; assay type: in vivo; details: mouse, in vivo, iv; 8 h after i.v. injection, 143B tumor bearing nude mice; read-out: tumor uptake (plateau, PET time activity curve)
Description: (§1) The tumor uptake of [^64Cu]DOTA-EB-TMTP1 was increased as time goes by, and reached the plateau of 6.5±0.8% ID/g at 8 h after injection.

143B tumor = assay: as above; assay type: in vivo
Description: as §1

in vivo = assay: in vivo; parameters: species or system nude mice; details: nude, mouse, iv
Source text: Tumor uptake was 6.7[…]% ID/g.

[2] = cell uptake of [^64Cu]DOTA-EB-TMTP1; assay type: cell-based; details: n=4, mean±SD; uptake ratio increased with time
[3] = tested on: highly metastatic tumor cells; details: literature, PLOS One (2012) 7(9): e42685; cited from earlier work
143B cells = assay: inhibition of [^64Cu]DOTA-EB-TMTP1 binding to 143B cells by TMTP1; details: TMTP1 competing with [^64Cu]DOTA-EB-TMTP1 on 143B cells; unit inferred

| Compound | tissue uptake at 8 h [1] [%ID/g] | tumor uptake (plateau, PET time activity curve) (143B tumor; 8 h after i.v. injection, 143B tumor bearing nude mice) | circulation time in the body (143B tumor; mouse, in vivo) | pharmacokinetic properties (143B tumor; mouse, in vivo) | tissue uptake at 48 h (in vivo) [%ID/g] | time at which cell uptake ratio reached the peak [2] [min] | affinity for a series of highly metastatic tumor cells [3] | IC50 (143B cells) [nM] |
| --- | --- | --- | --- | --- | --- | --- | --- | --- |
| Cc1cc(-c2ccc(NC(=O)CCC(NC(=O)CN3CCN(CC(=O)O)CCN(CC(=O)O)CCN(CC(=O)O)CC3)C(=O)NCC(=O)N[C@@H](CC(N)=O)C(=O)N[C@H](C(=O)N[C@H](C(=O)N[C@@H](CCCNC(=N)N)C(=O)N[C@@H](CCC(N)=O)C(=O)O)C(C)C)C(C)C)c(C)c2)ccc1N=Nc1ccc2c(S(=O)(=O)O)cc(S(=O)(=O)O)c(N)c2c1O (some centres unmarked) [[^64Cu]DOTA-EB-TMTP1, metal not drawn] ({DOTA}-[ξE](X1)GNVVRQ-OH) | 6.5 ± 0.8 | 6.5%±0.8 % ID/g | long circulation time | favorable pharmacokinetic properties | 6.7 | 45 | – | – |
| NVVRQ [TMTP1] | – | – | – | – | – | – | high affinity | 211 |
